Measurements as given in publication PMC6992608, “A Single Step in vitro Bioassay Mimicking TLR4-LPS Pathway and the Role of MD2 and CD14 Coreceptors” (Frontiers in Immunology, 2020).

Biological target: T1, Human recombinant toll like receptor 4 (rTLR4) (human, UniProt O00206 24-631)
T1 construct: toll like receptor 4 (TLR4), human, recombinant; No catalogue number or construct limits are printed; a soluble recombinant TLR4 is most likely the extracellular domain (surmised); also called MP-rTLR4; source: bought: R & D Systems
T1 sequence (O00206 24-631): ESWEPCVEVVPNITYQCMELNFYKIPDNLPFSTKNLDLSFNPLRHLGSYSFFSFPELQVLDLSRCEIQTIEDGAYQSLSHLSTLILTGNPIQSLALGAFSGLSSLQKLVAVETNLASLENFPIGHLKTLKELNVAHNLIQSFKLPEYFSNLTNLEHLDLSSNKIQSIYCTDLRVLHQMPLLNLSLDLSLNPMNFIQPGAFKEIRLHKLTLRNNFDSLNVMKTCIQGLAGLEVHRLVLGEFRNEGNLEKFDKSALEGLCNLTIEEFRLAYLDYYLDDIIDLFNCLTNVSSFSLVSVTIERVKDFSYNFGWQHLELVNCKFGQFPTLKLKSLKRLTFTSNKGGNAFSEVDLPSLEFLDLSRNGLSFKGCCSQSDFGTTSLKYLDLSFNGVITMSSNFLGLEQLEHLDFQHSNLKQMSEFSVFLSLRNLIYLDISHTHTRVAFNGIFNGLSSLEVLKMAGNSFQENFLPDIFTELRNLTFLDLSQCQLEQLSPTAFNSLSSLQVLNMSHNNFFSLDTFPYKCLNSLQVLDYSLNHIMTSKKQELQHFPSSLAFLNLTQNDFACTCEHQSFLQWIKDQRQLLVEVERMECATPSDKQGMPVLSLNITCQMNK
Assay: pull-down; rTLR4 held by its His tag on Ni-NTA magnetic beads; MD2 (Alexa Fluor 647), CD14 and LPS-Alexa Fluor 488 co-incubated in one tube in PBS pH 7.4 with 0.5% Tween 20 at RT; beads removed by magnet at 15, 30, 45, 60 and 90 min; unbound MD2 in the supernatant quantified by fluorescence, CD14 by silver staining
Settings: both partners purified

B1: Recombinant human myeloid differentiation-2 (MD2) protein (natural protein, UniProt Q9Y6Y9 19-160, looked up)
chain: QKQYWVCNSSDASISYTYCDKMQYPISINVNPCIELKRSKGLLHIFYIPRRDLKQLYFNLYITVNTMNLPKRKEVICRGSDDDYSFCRALKGETVNTTISFSFKGIKFSKGKYKCVVEAISGSPEEMLFCLEFVILHQPNSN
modifications: Alexa Fluor 647, on average 3 tags per MD2 molecule
notes: myeloid differentiation-2 (MD2, lymphocyte antigen 96), human, recombinant; No catalogue number is printed; source: bought: Abcam
stoichiometry N: 1
